Measured values taken from publication PMC11757908.

Target: trastuzumab (human)
Assay: charge-stabilized self-interaction nanoparticle spectroscopy

CS-SINS score: 0.1
Substance: trastuzumab (antibody)
